Test results as given in patent US20250011413A1 (MCMASTER UNIVERSITY, published 2025).

How the values were obtained:
[1] = biological target: T1, PF4/heparin complex (human PF4 complexed with heparin) (human, UniProt P02776 32-101); test: competition EIA, scFv 50 µg/mL; competitor HIT-negative sera antibodies, n=10
T1 construct: Multimeric complex of PF4 with heparin (not a protein); In the EIAs: PF4 captured on biotinylated heparin on streptavidin plates; In the SRA: platelets with 0.2 U/mL heparin; also called PF4 and heparin complexes
T1 sequence: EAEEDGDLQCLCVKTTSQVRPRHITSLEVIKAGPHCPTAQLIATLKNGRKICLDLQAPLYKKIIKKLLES
Method: Inhibitory PF4/heparin IgG-specific Streptavidin Enzyme Immunoassay (EIA). The binding activity of wildtype and mutant scFv antibodies to PF4/heparin complexes was measured using an inhibitory PF4/heparin IgG-specific EIA with a streptavidin-biotin capture system. Before performing this protocol, 96-well NUNC Maxisorp plates (ThermoFisher) were coated with 10 μg/mL streptavidin for 24 h. Plates were then blocked with 3% bovine serum albumin (BSA) in phosphate buffered saline (PBS) for 2 h at room temperature. Plates were then coated with 1 U/mL biotinylated-heparin for 1 h followed by 30 μg/mL PF4 for 1 h. Increasing concentrations of wildtype or mutant scFv were added and incubated for 1 hr at room temperature. Without removing wildtype or scFv, HIT patient sera in a 1:50 dilution or full-length KKO (2 μg/mL) was then incubated for 1 h at room temperature. After washing, alkaline phosphatase-conjugated anti-human or anti-mouse IgG (Jackson Immuno Research Laboratories, Inc., West Grove, PA) was added at a 1:4000 dilution and incubated for 1 h temperature. For detection, 1 mg/mL p-nitrophenylphosphate (PNPP, Sigma-Aldrich) substrate dissolved in 1 mol/L diethanolamine (DEA) buffer (pH 9.6) was added. The optical density (OD) was measured at 2 min intervals for 30 min at 405 nm (OD₄₀₅ₙₘ) using a BioTek 800 TS plate reader (BioTek Instruments Inc., Winooski, VT) to determine if anti-PF4/heparin antibody binding was inhibited. Results were reported as a decrease in OD (absorbance at 405 nm) from baseline levels.
Sera (n=10) from confirmed HIT-negative patients (EIA-positive/SRA-negative) containing anti-PF4/heparin antibodies were then used in the same EIA with scFv constructs to determine if antibody binding was decreased in this cohort (Table 5).

[2] = biological target: T1, PF4/heparin complex (human PF4 …); test: as above; remark: listed apart in the source
[3] = biological target: T2, Human PF4 (CXCL4), biotinylated, without heparin (human, UniProt P02776 32-101, biotinylated with EZ-link-Sulfo-NHS-LC-Biotin (sites not given)); test: BLI (Octet), biotinylated PF4 without heparin on streptavidin sensors, scFv 1 µg/mL
T2 construct: Immobilised on streptavidin biosensors for BLI; also called PF4 alone; platelet factor 4
T2 sequence: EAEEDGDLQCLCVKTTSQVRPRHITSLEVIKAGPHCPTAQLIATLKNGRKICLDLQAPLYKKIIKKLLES
Method: (§1) The Octet-QK Red 96 (FortéBio, Menlo Park, CA) instrumentation was used to conduct all BLI experiments. A 96-well microtiter plate (black, flat-bottom) was used to hold 200 μL per well of either sample or buffer. Pre-coated streptavidin biosensor tips (FortéBio) were hydrated in phosphate buffered saline (PBS) containing 1% bovine serum albumin (BSA, Sigma-Aldrich) before performing all kinetic assays. Each step was performed at an operating temperature of 23° C. with agitation at 1000 rpm. Streptavidin tips were first equilibrated in PBS+1% BSA to establish a baseline. […] The PF4-coated tips were then dipped into PBS+1% BSA for 13 minutes to re-establish a baseline. Tips were then incubated in an analyte solution containing half-fold dilutions of wildtype scFv (4.0, 2.0, 1.0, 0.5, 0.25 μg/mL in PBS+1% BSA) for 10 minutes to measure association. For mutant scFv association, tips were incubated in an analyte solution containing 200 μL of each mutant and wildtype scFv at a final concentration of 1 μg/mL in PBS+1% BSA. Antibody dissociation steps were performed by dipping sensors in wells containing PBS+1% BSA for 56 minutes. The following negative controls included in these kinetic experiments were also measured: 200 μL of buffer to replace both the antigen and scFv and 200 μL buffer replacing scFv only. Each experiment was performed with PF4 or with PF4/heparin as the immobilized antigen.
(§2) BLI experiments were performed to evaluate binding responses and affinities of wildtype and mutant scFv. Biotinylated PF4 alone or complexed with heparin was immobilized on streptavidin biosensors and used to capture wildtype scFv. Half-fold serial dilutions of wildtype scFv ranging from 0.25 μg/mL to 4 μg/mL were used to determine the optimal concentrations for future experiments PF4 (PF4 FIG. 3; PF4/heparin FIG. 4).

[4] = biological target: T1, PF4/heparin complex (human PF4 …); test: BLI (Octet), biotinylated PF4/heparin on streptavidin sensors, scFv 1 µg/mL, 1:1 model
Method: as §1, §2

[5] = biological target: T2, Human PF4 (CXCL4), biotinylated, …; test: BLI (Octet), biotinylated PF4 without heparin on streptavidin sensors, scFv 1 µg/mL, 1:1 model
Method: as §1, §2

[6] = biological target: T2, Human PF4 (CXCL4), biotinylated, …; test: BLI (Octet), biotinylated PF4 without heparin on streptavidin sensors, 1:1 model; scFv at 0.5 µg/mL
Method: as §1, §2

[7] = biological target: T2, Human PF4 (CXCL4), biotinylated, …; test: BLI (Octet), biotinylated PF4 without heparin on streptavidin sensors, scFv at 1 µg/mL, 1:1 model, mean ± s.d. [cont.) b]
Method: BLI experiments were performed using wildtype scFv, mutant B, mutant C, mutant D, mutant E, and mutant F at 1 μg/mL. Binding was measured against immobilized biotinylated PF4 on streptavidin biosensors. b) Table showing kinetic data of wildtype and mutant scFv, including binding responses and association and dissociation rates. All data was analyzed based on a 1:1 homogenous ligand binding model using Octet® User Software version 3.1.
as §1
BLI experiments were performed to evaluate binding responses and affinities of wildtype and mutant scFv. Biotinylated PF4 alone or complexed with heparin was immobilized on streptavidin biosensors and used to capture wildtype scFv.

Row | Binder | mean OD405nm of bound serum IgG (+ scFv) [1] | mean % inhibition of serum antibody binding [2] | average binding response (wavelength shift) [3] | Kd [4] | Kd [5] | Kd [6] | koff [6] | kon [6] | koff [7] | kon [7] | fold increase of binding response against wildtype scFv [3] | fold change of KD against wildtype scFv [4] | fold change of KD against wildtype scFv [5] | fold higher binding response than wildtype scFv [3] | fold stronger affinity than wildtype scFv [4] | fold stronger affinity than wildtype scFv [5]
1 | Wildtype scFv (KKO-derived single chain variable fragment) (scFv, VL-(G4S)3 linker-VH; expressed in E. coli BL21 from pADL-22c, purified on Ni-NTA as histidine-tagged scFv, about 28 kDa; also called WT; KKO-scFv; not shown: histidine tag from the pADL-22c vector) scFv: DIQMIQSQKFMSTSVGDRVTVTCKASQNVGTNVAWYQQKPGQSPNALIYSASYRYSGVPDRFTGSGSGTDFTLTITNVQSEDLADYFCQQYNSYPLTFGTGTKLDLKGGGGSGGGGSGGGGSVQLQQSGAELVKPGASVKLSCKASGYTFTNYFIYWVKQRPGQGLEWIGEINPRNGDTDFNEKFESRATLTVDKSSSTAYMQLSSLTSEDSAIYYCTRSPYGNNYGFTYWGQGTLVTVSA | 1.41 OD405nm | -38.3% | 0.0386 nm | 5.38 nM | 1320 nM | 34.5 nM | 0.0037 s⁻¹ | 107000 M⁻¹ s⁻¹ | 0.00255 s⁻¹ | 12500 M⁻¹ s⁻¹ |  |  |  |  |  | 
2 | Mutant B scFv, scFv(R18K, N152K, D180N) (scFv, VL-linker-VH; histidine-tagged, from E. coli BL21; also called Mut B; not shown: histidine tag from the pADL-22c vector) scFv: DIQMIQSQKFMSTSVGDKVTVTCKASQNVGTNVAWYQQKPGQSPNALIYSASYRYSGVPDRFTGSGSGTDFTLTITNVQSEDLADYFCQQYNSYPLTFGTGTKLDLKGGGGSGGGGSGGGGSVQLQQSGAELVKPGASVKLSCKASGYTFTKYFIYWVKQRPGQGLEWIGEINPRNGDTNFNEKFESRATLTVDKSSSTAYMQLSSLTSEDSAIYYCTRSPYGNNYGFTYWGQGTLVTVSA | 1.1 OD405nm | -31.4% | 0.267 nm | 1.36 nM | 1.69 nM |  |  |  | 5.07e-05 s⁻¹ | 30200 M⁻¹ s⁻¹ | 7 fold | 100 fold | 1000 fold |  |  | 
3 | Mutant D scFv, scFv(Y156H) (scFv, VL-linker-VH; histidine-tagged, from E. coli BL21; also called Mut D; not shown: histidine tag from the pADL-22c vector) scFv: DIQMIQSQKFMSTSVGDRVTVTCKASQNVGTNVAWYQQKPGQSPNALIYSASYRYSGVPDRFTGSGSGTDFTLTITNVQSEDLADYFCQQYNSYPLTFGTGTKLDLKGGGGSGGGGSGGGGSVQLQQSGAELVKPGASVKLSCKASGYTFTNYFIHWVKQRPGQGLEWIGEINPRNGDTDFNEKFESRATLTVDKSSSTAYMQLSSLTSEDSAIYYCTRSPYGNNYGFTYWGQGTLVTVSA | 1 OD405nm | -17.3% | 0.145 nm | 3.77 nM | 5.83 nM |  |  |  | 0.000103 s⁻¹ | 25700 M⁻¹ s⁻¹ |  |  |  | ≥ 3 fold | 100 fold | 1000 fold

These reach a lower Kd [4]. Values come first.

Row | mean OD405nm of bound serum IgG (+ scFv) [1] | mean % inhibition of serum antibody binding [2] | average binding response (wavelength shift) [3] | Kd [4] | Kd [5] | Kd [6] | koff [6] | kon [6] | koff [7] | kon [7] | fold increase of binding response against wildtype scFv [3] | fold change of KD against wildtype scFv [4] | fold change of KD against wildtype scFv [5] | fold higher binding response than wildtype scFv [3] | fold stronger affinity than wildtype scFv [4] | fold stronger affinity than wildtype scFv [5] | Binder
4 | 1.08 OD405nm | -34% | 0.0986 nm | 0.275 nM | 0.954 nM |  |  |  | 0.000124 s⁻¹ | 69300 M⁻¹ s⁻¹ |  |  |  | 2 fold | 100 fold | 10000 fold | Mutant E scFv, scFv(Y156H, D180G, Q233P) (scFv, VL-linker-VH; histidine-tagged, from E. coli BL21; also called Mut E; not shown: histidine tag from the pADL-22c vector) scFv: DIQMIQSQKFMSTSVGDRVTVTCKASQNVGTNVAWYQQKPGQSPNALIYSASYRYSGVPDRFTGSGSGTDFTLTITNVQSEDLADYFCQQYNSYPLTFGTGTKLDLKGGGGSGGGGSGGGGSVQLQQSGAELVKPGASVKLSCKASGYTFTNYFIHWVKQRPGQGLEWIGEINPKNGDTGFNEKFESRATLTVDKSSSTAYMQLSSLTSEDSAIYYCTRSPYGNNYGFTYWGPGTLVTVSA
5 | 1.19 OD405nm | -57% | 0.211 nm | 0.292 nM | 0.607 nM |  |  |  | 2.52e-05 s⁻¹ | 42200 M⁻¹ s⁻¹ | 5 fold |  |  |  |  |  | Mutant F scFv, scFv(E183V, E186K, G223R) (scFv, VL-linker-VH; histidine-tagged, from E. coli BL21; also called Mut F; not shown: histidine tag from the pADL-22c vector) scFv: DIQMIQSQKFMSTSVGDRVTVTCKASQNVGTNVAWYQQKPGQSPNALIYSASYRYSGVPDRFTGSGSGTDFTLTITNVQSEDLADYFCQQYNSYPLTFGTGTKLDLKGGGGSGGGGSGGGGSVQLQQSGAELVKPGASVKLSCKASGYTFTNYFIYWVKQRPGQGLEWIGEINPRNGDTDFNVKFKSRATLTVDKSSSTAYMQLSSLTSEDSAIYYCTRSPYRNNYGFTYWGQGTLVTVSA
